Data: patent EP1396542B1 (Genetics Institute, LLC, dated 2011)

T1: P-selectin expressed on the surface of CHO cells (CHO:P-selectin cell line) (UniProt P16109 42-830, limits assumed)
T1 construct: whole, on cells
T1 sequence (looked up): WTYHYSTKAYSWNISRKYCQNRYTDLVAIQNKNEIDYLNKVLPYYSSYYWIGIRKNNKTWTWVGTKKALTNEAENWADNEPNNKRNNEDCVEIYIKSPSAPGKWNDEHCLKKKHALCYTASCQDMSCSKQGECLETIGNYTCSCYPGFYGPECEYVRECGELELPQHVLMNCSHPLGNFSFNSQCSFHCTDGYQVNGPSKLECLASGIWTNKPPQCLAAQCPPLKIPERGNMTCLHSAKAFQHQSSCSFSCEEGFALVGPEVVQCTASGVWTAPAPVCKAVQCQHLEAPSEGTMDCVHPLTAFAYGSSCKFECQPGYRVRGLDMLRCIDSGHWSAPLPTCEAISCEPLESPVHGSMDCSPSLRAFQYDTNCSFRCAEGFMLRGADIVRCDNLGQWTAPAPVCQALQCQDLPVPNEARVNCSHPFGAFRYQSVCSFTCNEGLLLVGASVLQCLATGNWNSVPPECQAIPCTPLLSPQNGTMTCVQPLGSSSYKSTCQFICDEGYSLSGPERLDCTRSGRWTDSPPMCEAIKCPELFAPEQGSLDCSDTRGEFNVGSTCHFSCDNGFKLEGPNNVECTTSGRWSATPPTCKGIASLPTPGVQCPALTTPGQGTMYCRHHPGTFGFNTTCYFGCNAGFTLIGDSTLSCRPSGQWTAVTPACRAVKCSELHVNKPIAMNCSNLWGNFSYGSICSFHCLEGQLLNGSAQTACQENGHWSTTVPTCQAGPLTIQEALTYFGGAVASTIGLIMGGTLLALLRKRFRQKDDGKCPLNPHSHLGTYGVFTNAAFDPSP


Legend:
[1] = biological target: T1, P-selectin expressed on the surface of …; experiment: conditioned medium coated onto plastic dishes, binding of CHO:P-selectin cells; reference is sPSL.T7 without PACE
[2] = biological target: T1, P-selectin expressed on the surface of …; experiment: adhesion of 3H-thymidine labeled CHO:P-selectin cells to transfected COS cells, scintillation counting

| fold increase in bound CHO:P-selectin cells against P-selectin ligand not co-expressed with PACE [1] [fold] | fold binding of CHO:P-selectin cells relative to COS mock cells [2] [fold] | Binder |
| --- | --- | --- |
| ~2 | – | sPSL.T7 co-expressed with 3/4FT and PACE (PACE-cleaved soluble P-selectin ligand) (ligand, not shown: large carriers, glycoprotein made in cells co-expressing 3/4FT, also called PACE-cleaved P-selectin ligand; sPSL.T7 from the CP/PSL-T7 (R4.1) CHO-PACE line) QATEYEYLDYDFLPETEPPEMLRNSTDTTPLTGPGTPESTTVEPAARRSTGLDAGGAVTELTTELANMGNLSTDSAAMEIQTTQPAATEAQTTPLAATEAQTTRLTATEAQTTPLAATEAQTTPPAATEAQTTQPTGLEAQTTAPAAMEAQTTAPAAMEAQTTPPAAMEAQTTQTTAMEAQTTAPEATEAQTTQPTATEAQTTPLAAMEALSTEPSATEALSMEPTTKRGLFIPFSVSSVTHKGIPMAASNLSV |
| – | ~5.4 | P-selectin ligand protein, full length, expressed on COS cells co-transfected with pMT21:PL85 and the 3/4FT gene (pEA.3/4FT) (ligand, glycoprotein made in cells co-expressing (α1,3/1,4) fucosyltransferase (3/4FT), also called PSL; protein encoded by pMT21:PL85) QATEYEYLDYDFLPETEPPEMLRNSTDTTPLTGPGTPESTTVEPAARRSTGLDAGGAVTELTTELANMGNLSTDSAAMEIQTTQPAATEAQTTPLAATEAQTTRLTATEAQTTPLAATEAQTTPPAATEAQTTQPTGLEAQTTAPAAMEAQTTAPAAMEAQTTPPAAMEAQTTQTTAMEAQTTAPEATEAQTTQPTATEAQTTPLAAMEALSTEPSATEALSMEPTTKRGLFIPFSVSSVTHKGIPMAASNLSVNYPVGAPDHISVKQCLLAILILALVATIFFVCTVVLAVRLSRKGHMYPVRNYSPTEMVCISSLLPDGGEGPSATANGGLSKAKSPGLTPEPREDREGDDLTLHSFLP |
